Two molecules from patent US20140322196A1 can be followed below.

In assay [1] the target is Hemagglutinin (HA) of Avian 29/05/06 H5N1 (inactivated vaccine) (Influenza A virus Avian 29/05/06 H5N1). Nature of the assay: cell-based or functional assay.
Assay [2] deals with Hemagglutinin (HA) of Influenza SW [change] 1089/09 swine pandemic H1N1 (inactivated subunits, vaccine) (Influenza A virus SW [change] swine pandemic H1N1). Nature of the assay: cell-based or functional assay.

B1: bLf C-lobe (aa 285-689) (protein)
chain: SFQLFGSPPGQRDLLFKDSALGFLRIPSKVDSALYLGSRYLTTLKNLRETAEEVKARYTRVVWCAVGPEEQKKCQQWSQQSGQNVTCATASTTDDCIVLVLKGEADALNLDGGYIYTAGKCGLVPVLAENRKSSKHSSLDCVLRPTEGYLAVAVVKKANEGLTWNSLKDKKSCHTAVDRTAGWNIPMGLIVNQTGSCAFDEFFSQSCAPGADPKSRLCALCAGDDQGLDKCVPNSKEKYYGYTGAFRCLAEDVGDVAFVKNDTVWENTNGESTADWAKNLNREDFRLLCLDGTRKPVTEAQSCHLAVAPNHAVVSRSDRAAHVKQVLLHQQALFGKNGKNCPDKFCLFKSETKNLLFNDNTECLAKLGGRPTYEEYLGTEYVTAIANLKKCSTSPLLEACAFLTR
As for B1, the activity on viral hemagglutination (HI) in assay [1] was determined as 2.9 pM; in assay [2] it was 46.5 fM.

B2: bLf C-lobe (aa 345-689) (protein)
chain: VVWCAVGPEEQKKCQQWSQQSGQNVTCATASTTDDCIVLVLKGEADALNLDGGYIYTAGKCGLVPVLAENRKSSKHSSLDCVLRPTEGYLAVAVVKKANEGLTWNSLKDKKSCHTAVDRTAGWNIPMGLIVNQTGSCAFDEFFSQSCAPGADPKSRLCALCAGDDQGLDKCVPNSKEKYYGYTGAFRCLAEDVGDVAFVKNDTVWENTNGESTADWAKNLNREDFRLLCLDGTRKPVTEAQSCHLAVAPNHAVVSRSDRAAHVKQVLLHQQALFGKNGKNCPDKFCLFKSETKNLLFNDNTECLAKLGGRPTYEEYLGTEYVTAIANLKKCSTSPLLEACAFLTR
For the molecule B2, the figures for the activity on viral hemagglutination (HI) in assay [1] and in assay [2] were 2.4 pM and 46.5 fM, respectively.
